In the RNAGym collection of RNA variant scans (doi:10.1073/pnas.2313332121):

B1: TPR t1 (parent)
chain: GACCAAUCUGCCCUCAGAGCUCGAGAACAUCUUCGGAUGCAGAGGAGGCAGGCUUCGGUGGCGCGAUAGCGCCAACGUCCUCAACCUCCAAUGCAUCCCACCACAUGAUGAUGCCUGAAGAGCCUUGGUUUUUUG

Variants of: B1
Test: polymerase ribozyme fitness, log enrichment relative to wild type (log ratio); higher = more active; in vitro selection for triplet polymerase activity
How it was run: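 After PCR construction and transcription, each subunit's mutant library from a heterodimeric triplet polymerase ribozyme was annealed with a biotinylated primer, the partner subunit and triplets. Incubation was frozen, at −7 °C, and extended constructs were gel-excised, bound to streptavidin beads and amplified by RT-PCR, in one selection round done in triplicate. Fitness is the logarithm of a genotype's enrichment divided by that of the wild type, from inverse-variance-weighted replicate averages of Illumina-sequenced inputs and outputs. The base of the logarithm is 2, and genotypes needed ≥10 input reads and ≥1 read per output.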

Variant | polymerase ribozyme fitness (log ratio)
U21C G57A C72U G77C U96A A121U U125A | -3.06
C20U G61C A111G | -5.2
G19C C88U | -2.6
C20G G48A G60U U96A A105U G110U A118U | -6.72
U21G C40A U92A | -2.98
C20A U59A U78A G117A | -4.88
C20G C123G | -2.95
U21A U87A | 0.177
U21A U87G | -0.0526
C22A C40G G58C G60A | -4.83
C22A U87A | -4.86
U21A A46U G93A G113U U130A U132A | -3.92
U21A G52A C89U | -1.17
C20U C28A G60A A121C | -2.44
C22A U55G | -4.85
C22A U55C | -4.37
C20A C86G C114U C115U | -5.24
G19U C56U C89G | -3.6
U21A A66U U112G | -0.949
U21G G93A C114U | -3.41
U21C C28A G57U C70A U78G G110U | -3.7

Variant | polymerase ribozyme fitness (log ratio)
C20G C53A G57U A91C A95G U109G | -3.11
G19U A121U | 0.0875
C20U G36U C70U G135U | -3.95
C22A A43C U78C A83C C86U G113A | -5.47
C20U A43G C62U U78G U87A C89G | -5.31
C20A U96A C102G C114A | -5.84
U21G G117A | -2.55
C20U A41G G60C | -2.04
C20G A118U | -3.53
C20U C76A | -2.08
G19U G51A G60A G77C G113U | -6.6
C20U A29G G63A C80U | -4.01
C22A G57U U106A A118G U133C | -3.51
C20U C72U G120C | -1.44
U21G A37G A41U U78C G113U | -2.05
G19U C64U C124U | -2.27
G19U A43U G122A C124A | -2.23
C22A G48U C49U C62G G69A A108G A111C | -6.98
C20A C76U C82G U96G | -4.53
G19U G71A A118G | -6.34
C20U G61U | -1.41

Variant | polymerase ribozyme fitness (log ratio)
C20U G52U C53U C56A C123A | -3.62
U21C C56A G58A G113C U132A | -2.29
G19C G42C C97U C115A A119G U129A | -5.99
C20A A50U U126C | -4.92
U21A A24G C70U | -2.2
C20G G63C | -4.72
C20G G63A | -6.16
C20A A27G C40G U55C G71C | -4.12
C20G U116C | -3.78
C20U C72G C102A | -3.19
C20A G48U C70A U78G G113A G117C | -7.02
C22A A37U C53U C73G | -5.35
C22A C73A | -4.25
G19C G39A C53A C76U | -3.34
G19U C86U | -2.9
C20U G69U C70G C94A | -3.15
C20A A91C | -3.55
U21A C49G C62A G113C | -4.99
C20G G45U G61A | -4.19
U21G A37G A41U G113U | -2.41
U21A C56A | -0.423

Variant | polymerase ribozyme fitness (log ratio)
U21A C56U | -0.334
U21G G71U G110U U112A | -1.83
C20G G60A G120C | -4.56
C20A G42U | -4
C20G A41U C115U | -4.6
C20A G36U | -2.98
C20A C70U | -3.19
C20U U32C U106A | -2.46
U21A C123G G128C | -1.09
C22A C101U U106C | -5.01
C20G A43U | -3.89
C20U A43U | -2.08
C20A G61U G63A C72U U92C C99G C101A C123U | -6.1
C22A U59A | -5.52
C20A G69U | -1.94
C20A G69A | -5.6
C20A C53U U87A | -3.21
U21G A26U C72A C104A G110U U125G | -7.09
U21C C56U C62A G63A A90C C101A U112C | -6.74
C22A C88U | -4.66
C20A G93U U112G | -4.35
